B1: INTS4 (parent)
chain: YSSGEFSSGRKWGDDAPKEEVDTG
B2: NET1 (parent)
chain: PTPAKRRSSALWSEMLDITMKESL

Variants of: B1
Test: protein stability index of a GFP-peptide fusion (GPS, HEK-293T) (PSI 1-6); higher = more stable
Conditions: c terminus: a fixed tail appended
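Also: lentivirally expressed fusions sorted by FACS into six bins by GFP to DsRed ratio, PSI derived from sequencing read proportions per bin multiplied by bin number.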

Variant	protein stability index
YSSGEFSSGRKRGDDAPKEEVDTG [W12R]	2.86
YSSGEFSSGRKHGDDAPKEEVDTG [W12H]	3.29
YSSGEFSSGRKYGDDAPKEEVDTG [W12Y]	2.57
YSSGEFSSGRKNGDDAPKEEVDTG [W12N]	3.3
YSSGEFSSGRKCGDDAPKEEVDTG [W12C]	2.7
YSSGEFSSGRKWGDDAPKEEVSTG [D22S]	2.17
YSSGEFSSGRKWGDDAPKEEVETG [D22E]	2.72
YSSGEFSSGRKWGDDAPKEEVGTG [D22G]	2.35
YSSGEFSSGRSWGDDAPKEEVDTG [K11S]	3.02
YSSGEFSSGRDWGDDAPKEEVDTG [K11D]	2.73
YSSGEFTSGRKWGDDAPKEEVDTG [S7T]	3.02
YSSGEFKSGRKWGDDAPKEEVDTG [S7K]	3.45
YSSGEKSSGRKWGDDAPKEEVDTG [F6K]	4.65
YSSGEPSSGRKWGDDAPKEEVDTG [F6P]	5.56
YSSGEYSSGRKWGDDAPKEEVDTG [F6Y]	4.13
YSSGEFSSGRKWGDDAPKEEVDAG [T23A]	2.35
YSSGEFSSGRKWGDDAPKEEVDVG [T23V]	2.39
YSSGEFSSGRKWGDDAPKEEVDPG [T23P]	1.9
YISGEFSSGRKWGDDAPKEEVDTG [S2I]	2.42
YFSGEFSSGRKWGDDAPKEEVDTG [S2F]	4.02
YESGEFSSGRKWGDDAPKEEVDTG [S2E]	5.4
YPSGEFSSGRKWGDDAPKEEVDTG [S2P]	2.31

Variant	protein stability index
YHSGEFSSGRKWGDDAPKEEVDTG [S2H]	1.48
YSSGEFSSGRKWGDNAPKEEVDTG [D15N]	2.34
YSSGEFSSGRKWGDRAPKEEVDTG [D15R]	1.92
YSSGEFSSGRKWGDFAPKEEVDTG [D15F]	3.02
YSSGEFSSGMKWGDDAPKEEVDTG [R10M]	1.52
YSSGEFSSGGKWGDDAPKEEVDTG [R10G]	2.93
YSSGEFSSGFKWGDDAPKEEVDTG [R10F]	1.74
YSSGEFSSGSKWGDDAPKEEVDTG [R10S]	3.19
YSSGEFSSGQKWGDDAPKEEVDTG [R10Q]	1.98
YSSTEFSSGRKWGDDAPKEEVDTG [G4T]	3.61
YSSLEFSSGRKWGDDAPKEEVDTG [G4L]	3.33
YSSFEFSSGRKWGDDAPKEEVDTG [G4F]	3.6
YSSWEFSSGRKWGDDAPKEEVDTG [G4W]	2.43
YSSIEFSSGRKWGDDAPKEEVDTG [G4I]	4.11
YSSHEFSSGRKWGDDAPKEEVDTG [G4H]	4.42
YSSKEFSSGRKWGDDAPKEEVDTG [G4K]	3.31
YSSVEFSSGRKWGDDAPKEEVDTG [G4V]	3.87
YSSYEFSSGRKWGDDAPKEEVDTG [G4Y]	3.91
YSSGEFSSGRKWGYDAPKEEVDTG [D14Y]	2.48
YSSGEFSSGRKWGWDAPKEEVDTG [D14W]	2.2
YSSGEFSSGRKWGPDAPKEEVDTG [D14P]	2.04
YSSGEFSSGRKWGQDAPKEEVDTG [D14Q]	1.41

Variant	protein stability index
YSSGEFSSGRKWGGDAPKEEVDTG [D14G]	1.22
YSSGEFSSGRKWGDDAPKEEVDTQ [G24Q]	2.58
YSSGEFSSGRKWGDDAPKEEVDTM [G24M]	2.68
YSSGEFSSGRKWGDDAPKEEVDTP [G24P]	2.4
YSSGEFSSGRKWGDDAAKEEVDTG [P17A]	2.84
YSSGEFSSGRKWGDDAHKEEVDTG [P17H]	1.47
YSSGEFSSSRKWGDDAPKEEVDTG [G9S]	2.63
YSSGEFSSCRKWGDDAPKEEVDTG [G9C]	1.75
YSSGEFSSGRKWGDDAPFEEVDTG [K18F]	4.04
YSSGEFSSGRKWGDDAPNEEVDTG [K18N]	2.96
YSSGEFSSGRKWGDDAPWEEVDTG [K18W]	2.88
YSSGEFSSGRKWGDDAPSEEVDTG [K18S]	3.16
YSSGEFSSGRKWGDDAPMEEVDTG [K18M]	2.82
YSSGEFSSGRKWTDDAPKEEVDTG [G13T]	2.5
YSSGEFSSGRKWMDDAPKEEVDTG [G13M]	2.45
YSSGEFSSGRKWRDDAPKEEVDTG [G13R]	2.15
YSSGEFSSGRKWEDDAPKEEVDTG [G13E]	3.02
YSSGEFSSGRKWADDAPKEEVDTG [G13A]	2.65
QSSGEFSSGRKWGDDAPKEEVDTG [Y1Q]	5.66
VSSGEFSSGRKWGDDAPKEEVDTG [Y1V]	5.8
WSSGEFSSGRKWGDDAPKEEVDTG [Y1W]	4.52
YSSGEFSSGRKWGDDAPKCEVDTG [E19C]	2.37

Variant	protein stability index
YSSGEFSSGRKWGDDAPKKEVDTG [E19K]	2
YSSGEFSSGRKWGDDAPKYEVDTG [E19Y]	1.74
YSSGEFSSGRKWGDDAPKDEVDTG [E19D]	2.74
YSSGEFSSGRKWGDDAPKEEFDTG [V21F]	2.58
YSSGEFSSGRKWGDDAPKEEYDTG [V21Y]	2.74
YSSGKFSSGRKWGDDAPKEEVDTG [E5K]	2.22
YSSGYFSSGRKWGDDAPKEEVDTG [E5Y]	1.04
YSSGPFSSGRKWGDDAPKEEVDTG [E5P]	2.95
YSFGEFSSGRKWGDDAPKEEVDTG [S3F]	3.93
YSTGEFSSGRKWGDDAPKEEVDTG [S3T]	3.83
YSLGEFSSGRKWGDDAPKEEVDTG [S3L]	4.59
YSEGEFSSGRKWGDDAPKEEVDTG [S3E]	5.22
YSAGEFSSGRKWGDDAPKEEVDTG [S3A]	4.89
YSSGEFSRGRKWGDDAPKEEVDTG [S8R]	2.24
YSSGEFSKGRKWGDDAPKEEVDTG [S8K]	2.19
YSSGEFSSGRKWGDDHPKEEVDTG [A16H]	1.92
YSSGEFSSGRKWGDDWPKEEVDTG [A16W]	2.01
YSSGEFSSGRKWGDDYPKEEVDTG [A16Y]	2.56
YSSGEFSSGRKWGDDNPKEEVDTG [A16N]	2.09
YSSGEFSSGRKWGDDLPKEEVDTG [A16L]	2.48

Variants of: B2
Test: as above
Conditions: c terminus: a fixed tail appended

Variant	protein stability index
KTPAKRRSSALWSEMLDITMKESL [P1K]	2.04
MTPAKRRSSALWSEMLDITMKESL [P1M]	1.72
QTPAKRRSSALWSEMLDITMKESL [P1Q]	2.78
TTPAKRRSSALWSEMLDITMKESL [P1T]	1.67
NTPAKRRSSALWSEMLDITMKESL [P1N]	2.33
STPAKRRSSALWSEMLDITMKESL [P1S]	1.45
ITPAKRRSSALWSEMLDITMKESL [P1I]	2.07
ATPAKRRSSALWSEMLDITMKESL [P1A]	2.56
LTPAKRRSSALWSEMLDITMKESL [P1L]	2.25
VTPAKRRSSALWSEMLDITMKESL [P1V]	2.63
RTPAKRRSSALWSEMLDITMKESL [P1R]	1.92
GTPAKRRSSALWSEMLDITMKESL [P1G]	2.28
DTPAKRRSSALWSEMLDITMKESL [P1D]	2.12
WTPAKRRSSALWSEMLDITMKESL [P1W]	1.89
CTPAKRRSSALWSEMLDITMKESL [P1C]	1.75
HTPAKRRSSALWSEMLDITMKESL [P1H]	3.04
PTPAKFRSSALWSEMLDITMKESL [R6F]	1.85
PTPAKMRSSALWSEMLDITMKESL [R6M]	2.56
PTPAKNRSSALWSEMLDITMKESL [R6N]	2.51
PTPAKPRSSALWSEMLDITMKESL [R6P]	2.02
PTPAKTRSSALWSEMLDITMKESL [R6T]	1.76
PTPAKARSSALWSEMLDITMKESL [R6A]	3.48
PTPAKWRSSALWSEMLDITMKESL [R6W]	1.99
PTPAKLRSSALWSEMLDITMKESL [R6L]	1.99
PTPAKCRSSALWSEMLDITMKESL [R6C]	1.98
PTPAKIRSSALWSEMLDITMKESL [R6I]	1.84

Variant	protein stability index
PTPAKDRSSALWSEMLDITMKESL [R6D]	2.79
PTPAKKRSSALWSEMLDITMKESL [R6K]	2.1
PTPAKVRSSALWSEMLDITMKESL [R6V]	1.64
PTPAKERSSALWSEMLDITMKESL [R6E]	3.25
PTPAKHRSSALWSEMLDITMKESL [R6H]	4.19
PTPAKSRSSALWSEMLDITMKESL [R6S]	2.42
PTPATRRSSALWSEMLDITMKESL [K5T]	2.51
PTPAERRSSALWSEMLDITMKESL [K5E]	2.54
PTPAWRRSSALWSEMLDITMKESL [K5W]	1.54
PTPADRRSSALWSEMLDITMKESL [K5D]	2.95
PTPASRRSSALWSEMLDITMKESL [K5S]	2.19
PTPARRRSSALWSEMLDITMKESL [K5R]	2.53
PTPACRRSSALWSEMLDITMKESL [K5C]	2.38
PTPAGRRSSALWSEMLDITMKESL [K5G]	2.59
PTPAHRRSSALWSEMLDITMKESL [K5H]	2.55
PTPAARRSSALWSEMLDITMKESL [K5A]	2.34
PTPANRRSSALWSEMLDITMKESL [K5N]	2.52
PTPAVRRSSALWSEMLDITMKESL [K5V]	2.41
PTPAMRRSSALWSEMLDITMKESL [K5M]	2.06
PTPAIRRSSALWSEMLDITMKESL [K5I]	2.42
PTPAKRASSALWSEMLDITMKESL [R7A]	2.61
PTPAKRDSSALWSEMLDITMKESL [R7D]	3.36
PTSAKRRSSALWSEMLDITMKESL [P3S]	2.17
PTHAKRRSSALWSEMLDITMKESL [P3H]	2.05
PTCAKRRSSALWSEMLDITMKESL [P3C]	1.81
PTRAKRRSSALWSEMLDITMKESL [P3R]	2.5

Variant	protein stability index
PTQAKRRSSALWSEMLDITMKESL [P3Q]	2.39
PTYAKRRSSALWSEMLDITMKESL [P3Y]	1.61
PTTAKRRSSALWSEMLDITMKESL [P3T]	2.21
PTEAKRRSSALWSEMLDITMKESL [P3E]	2.25
PTLAKRRSSALWSEMLDITMKESL [P3L]	2.1
PTWAKRRSSALWSEMLDITMKESL [P3W]	3.24
PTGAKRRSSALWSEMLDITMKESL [P3G]	2.27
PTIAKRRSSALWSEMLDITMKESL [P3I]	2.49
PTNAKRRSSALWSEMLDITMKESL [P3N]	2.27
PTAAKRRSSALWSEMLDITMKESL [P3A]	1.88
PTDAKRRSSALWSEMLDITMKESL [P3D]	2.32
PTKAKRRSSALWSEMLDITMKESL [P3K]	2.44
PTMAKRRSSALWSEMLDITMKESL [P3M]	2.24
PKPAKRRSSALWSEMLDITMKESL [T2K]	2.15
PYPAKRRSSALWSEMLDITMKESL [T2Y]	1.86
PRPAKRRSSALWSEMLDITMKESL [T2R]	2.34
PGPAKRRSSALWSEMLDITMKESL [T2G]	2.06
PFPAKRRSSALWSEMLDITMKESL [T2F]	1.97
PCPAKRRSSALWSEMLDITMKESL [T2C]	1.55
PLPAKRRSSALWSEMLDITMKESL [T2L]	2.84
PVPAKRRSSALWSEMLDITMKESL [T2V]	2.54
PWPAKRRSSALWSEMLDITMKESL [T2W]	1.5
PAPAKRRSSALWSEMLDITMKESL [T2A]	2.93
PIPAKRRSSALWSEMLDITMKESL [T2I]	2.26
PNPAKRRSSALWSEMLDITMKESL [T2N]	2.38
PHPAKRRSSALWSEMLDITMKESL [T2H]	2.85

Variant	protein stability index
PQPAKRRSSALWSEMLDITMKESL [T2Q]	2.33
PSPAKRRSSALWSEMLDITMKESL [T2S]	1.62
PMPAKRRSSALWSEMLDITMKESL [T2M]	2.11
PEPAKRRSSALWSEMLDITMKESL [T2E]	3.04
PDPAKRRSSALWSEMLDITMKESL [T2D]	2.73
PTPIKRRSSALWSEMLDITMKESL [A4I]	1.99
PTPCKRRSSALWSEMLDITMKESL [A4C]	1.47
PTPPKRRSSALWSEMLDITMKESL [A4P]	2.11
PTPTKRRSSALWSEMLDITMKESL [A4T]	1.95
PTPKKRRSSALWSEMLDITMKESL [A4K]	2.63
PTPMKRRSSALWSEMLDITMKESL [A4M]	2.07
PTPWKRRSSALWSEMLDITMKESL [A4W]	2.27
PTPEKRRSSALWSEMLDITMKESL [A4E]	2.48
PTPHKRRSSALWSEMLDITMKESL [A4H]	1.84
PTPQKRRSSALWSEMLDITMKESL [A4Q]	2.57
PTPNKRRSSALWSEMLDITMKESL [A4N]	2.07
PTPGKRRSSALWSEMLDITMKESL [A4G]	2.3
PTPSKRRSSALWSEMLDITMKESL [A4S]	1.73
PTPLKRRSSALWSEMLDITMKESL [A4L]	1.85
PTPRKRRSSALWSEMLDITMKESL [A4R]	2.03
PTPFKRRSSALWSEMLDITMKESL [A4F]	2.03
PTPDKRRSSALWSEMLDITMKESL [A4D]	2.46
PTPYKRRSSALWSEMLDITMKESL [A4Y]	1.82
PTPVKRRSSALWSEMLDITMKESL [A4V]	2.21

Source: the supplement of paper PMC10567573
